Eleven molecules from patent US9163227B2, “Anti-diabetic compounds” (PFIZER INC., priority 2011, dated 2015) can be followed below.

Series [1] is described as follows: Body weight and liver weight in ob/ob mice. The series is classed as in vivo. The following applies: single SC dose 3 mg/kg; for Cumulative body weight change, mean body weight: FIG. 5A; for mean liver weight: FIG. 5B. The protocol:
(§1) The efficacy of FGF21 antibodies conjugates was evaluated in two murine obese insulin resistant models—ob/ob mice and high-fat diet-induced obese mice. For both models, male mice (6-8 weeks of age for ob/ob, 12-14 weeks of age for DIO with high-fat diet initiated at 6 weeks of age) were housed 2-4/cage and FGF21 antibody conjugates were administered by SC injection. Body weight was measured daily in the morning. Glucose tolerance was assessed by oral glucose tolerance test. Briefly, mice were fasted for 4-5 hrs in the morning of the day of testing. A basal blood sample was obtained and blood glucose levels were determined using a portable glucometer.

The next series relates to ob/ob mice. Nature of the series: Oral glucose tolerance test in ob/ob mice (FGF21 conjugates). The following applies: ob/ob mice; for Mean Glucose AUC (% of vehicle control) during OGTT: FIGS. 4A/4B, single SC dose 3 mg/kg. The series is classed as in vivo. As to the method:
as §1

For series [2], the target named is Glut1 mRNA expression in differentiated 3T3-L1 adipocytes (Mus musculus, UniProt P16092+Q99N32). The experiment in a line: Glut1 Taqman assay. The series is classed as cell-based. The following applies: for EC50: 6 hrs. The protocol: Differentiated 3T3-L1 adipocytes were used to measure the Glut1 mRNA expression by qPCR method. Overnight serum starved day 10-14 differentiated 3T3-L1 adipocytes were treated with compounds for 6 hrs. Total RNA was extracted from these cells, and Glut1 and GAPDH mRNA expression was measured using a Quantitect Probe RT-PCR kit and running a quantitative real time PCR reaction in a Taqman machine (Applied Biosystems®). The bioactivity of the compounds was determined by a fold change in Glut1 mRNA levels normalized by the GAPDH mRNA levels from each sample. EC═values as measurements of the potency of the compounds were obtained from the dose response curves in the assay.
Chain of Glut1 mRNA expression in differentiated 3T3-L1 adipocytes (P16092 22-822): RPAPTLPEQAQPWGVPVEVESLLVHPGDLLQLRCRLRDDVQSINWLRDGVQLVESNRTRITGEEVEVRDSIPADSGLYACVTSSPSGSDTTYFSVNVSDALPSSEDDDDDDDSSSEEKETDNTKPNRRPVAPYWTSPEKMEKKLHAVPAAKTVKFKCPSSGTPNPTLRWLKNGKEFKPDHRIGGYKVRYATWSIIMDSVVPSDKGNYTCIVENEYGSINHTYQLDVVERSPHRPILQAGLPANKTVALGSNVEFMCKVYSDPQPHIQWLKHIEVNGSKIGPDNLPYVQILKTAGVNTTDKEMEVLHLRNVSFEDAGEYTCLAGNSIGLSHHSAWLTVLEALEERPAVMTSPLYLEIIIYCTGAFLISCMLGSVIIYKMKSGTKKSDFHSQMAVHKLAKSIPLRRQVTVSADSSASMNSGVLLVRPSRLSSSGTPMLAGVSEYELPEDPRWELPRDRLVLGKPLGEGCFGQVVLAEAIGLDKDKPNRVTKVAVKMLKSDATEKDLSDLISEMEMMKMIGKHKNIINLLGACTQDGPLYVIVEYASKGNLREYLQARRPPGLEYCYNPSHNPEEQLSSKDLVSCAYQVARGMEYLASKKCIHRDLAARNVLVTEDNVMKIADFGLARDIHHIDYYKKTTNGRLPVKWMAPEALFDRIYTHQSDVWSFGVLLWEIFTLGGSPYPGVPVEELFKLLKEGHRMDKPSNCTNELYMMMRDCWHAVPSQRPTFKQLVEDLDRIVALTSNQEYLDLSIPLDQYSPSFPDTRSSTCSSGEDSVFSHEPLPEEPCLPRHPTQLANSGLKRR
Chain of Glut1 mRNA expression in differentiated 3T3-L1 adipocytes (Q99N32 whole entry): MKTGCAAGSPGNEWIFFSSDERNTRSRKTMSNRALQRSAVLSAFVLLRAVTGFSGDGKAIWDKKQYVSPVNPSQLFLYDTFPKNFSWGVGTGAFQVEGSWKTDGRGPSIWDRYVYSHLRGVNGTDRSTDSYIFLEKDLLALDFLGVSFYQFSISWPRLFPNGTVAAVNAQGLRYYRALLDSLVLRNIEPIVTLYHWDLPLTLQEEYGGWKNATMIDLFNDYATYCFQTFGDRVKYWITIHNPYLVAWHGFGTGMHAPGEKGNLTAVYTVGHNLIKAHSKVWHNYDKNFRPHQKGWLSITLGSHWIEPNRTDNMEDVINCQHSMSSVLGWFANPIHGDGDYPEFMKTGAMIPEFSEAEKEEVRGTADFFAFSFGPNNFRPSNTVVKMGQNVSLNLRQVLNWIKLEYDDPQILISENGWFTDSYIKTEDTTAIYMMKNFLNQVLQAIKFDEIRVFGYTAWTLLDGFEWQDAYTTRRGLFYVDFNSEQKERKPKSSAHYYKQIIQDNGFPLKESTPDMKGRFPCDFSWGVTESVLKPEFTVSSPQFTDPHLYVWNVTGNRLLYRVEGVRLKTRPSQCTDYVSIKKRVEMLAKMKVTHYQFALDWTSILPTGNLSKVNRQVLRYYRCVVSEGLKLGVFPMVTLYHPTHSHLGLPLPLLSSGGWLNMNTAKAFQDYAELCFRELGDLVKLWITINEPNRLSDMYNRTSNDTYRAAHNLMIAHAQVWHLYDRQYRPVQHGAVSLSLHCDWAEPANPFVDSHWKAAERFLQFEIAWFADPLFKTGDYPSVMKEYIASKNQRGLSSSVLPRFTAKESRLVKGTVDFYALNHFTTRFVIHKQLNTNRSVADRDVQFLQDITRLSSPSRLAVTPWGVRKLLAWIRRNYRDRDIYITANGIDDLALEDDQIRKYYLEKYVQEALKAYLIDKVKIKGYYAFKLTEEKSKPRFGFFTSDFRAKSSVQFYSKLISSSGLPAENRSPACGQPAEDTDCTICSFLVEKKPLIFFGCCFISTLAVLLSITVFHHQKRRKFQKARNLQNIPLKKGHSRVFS
3T3-L1 adipocytes were seeded at day 8 in 24-well tissue culture plates (Falcon®, Cat#353047), and incubated in DMEM complete medium (10% FBS, 2 mM L-glutamine, 1% P/S) at 37° C., 5% CO2. […] The medium was aspirated, and then RNA extracted from the cells using the RNeasy mini Kit according to the manufacturer's instructions. RNA was measured at A260 nm using the Spectramax® Plus spectrophotometer.
In Glut1 Taqman assay, differentiated 3T3-L1 adipocytes were used to measure the Glut1 mRNA expression by real-time quantitative PCR (qPCR) method described below. Overnight serum starved day 10-14 differentiated 3T3-L1 adipocytes were treated with compounds for 6 hrs. Total RNA was extracted from these cells, and Glut1 and GAPDH mRNA expression was measured using a Quantitect Probe RT-PCR kit and running a real time quantitative PCR reaction in a Taqman machine. The bioactivity of the compounds was determined by a fold change in Glut1 mRNA levels normalized by the GAPDH mRNA levels from each sample. In cAMP assay, Chinese hamster ovary (CHO) cells over-expressing human GLP-1R(CHO-hGLP-1R) were seeded in 96-well plates in serum-free medium with 300 uM IBMX. Cells were incubated with compounds at RT for 1 hr. The cAMP levels were measured using a CisBio cAMP Kit according to manufacturer's instructions. The bioactivity of the compounds was determined by the EC50 values obtained from the assay (see Table 42).

Series [3] in a line: Mouse pharmacokinetics of FGF21 antibody conjugates. The series is classed as in vivo, Swiss-Webster mice. The following applies: mice. The protocol: The PK of FGF21 antibody conjugates were examined in mice after IV or SC administration. […] Antibody conjugates concentrations in serum were determined using an ELISA which captured the FGF21 portion of the antibody conjugates through a monoclonal anti-hFGF21 antibody bound to a 96-well plate. FGF21 antibody conjugates bound to the plate were detected through an anti-hFc monoclonal antibody, and concentrations were determined using a standard curve of the PK dosing solution diluted into serum-containing assay buffer. SC bioavailability was calculated as the ratio of the area-under the curve (AUC) of the SC serum concentration profile divided by the AUC of the IV serum concentration profile.

Series [4] addresses differentiated 3T3-L1 adipocytes (Mus musculus, UniProt P16092+Q99N32). The experiment in a line: Glucose uptake assay. The series is classed as cell-based. The protocol:
Differentiated 3T3-L1 adipocytes were treated with compounds in the absence of serum for 24 hrs. Cells were then incubated with ^14C-2-deoxyglucose for 1 hr and glucose uptake into the cells was quantitated in Wallac 1450 MicroBeta (Trilux) instrument. Glucose uptake was expressed in counts per min (CPM). EC50 values as measurements of the potency of the compounds were obtained from the dose response curves in the assay.

[5] abbreviates: differentiated 3T3-L1 adipocytes, protein or antibody conjugate as labelled, read-out: Glut1 Taqman assay EC50.

“And” between values parts separate entries of the source, which are not always exact repeats. Identical values can stand only once. Like-named read-outs stand apart in the source and are kept apart here.

Chain of differentiated 3T3-L1 adipocytes (P16092 22-822): as the sequence (P16092 22-822) above
Chain of differentiated 3T3-L1 adipocytes (Q99N32 whole entry): as the sequence (Q99N32 whole entry) above

B1: Ab-L5-FGF21ΔH-Knull-H1K: SEQ ID NO:23 combined with L5 at H1K and conjugated with h38C2 (conjugate, listed as Homo sapiens)
chain: KPIPDSSPLLQFGGQVRQRYLYTDDAQQTEAHLEIREDGTVGGAADQSPESLLQLRALRPGVIQILGVRTSRFLCQRPDGALYGSLHFDPEACSFRELLLEDGYNVYQSEAHGLPLHLPGNRSPHRDPAPRGPARFLPLPGLPPALPEPPGILAPQPPDVGSSDPLSMVGPSQGRSPSYAS
modifications: L5 linker at K1 conjugated to h38C2 antibody
As for B1, in series [1], the “Cumulative body weight change, mean body weight” value is on record as 2.6 g and the “mean liver weight” value came out at 2.4 g. Also, in the series on ob/ob mice, the “Mean Glucose AUC (% of vehicle control) during OGTT” value was 100 % of vehicle control and the “glucose tolerance in ob/ob mice (in words)” value is “compared poorly against Ab-FGF21ΔH-H125C”.

B2: FGF21ΔH-Knull-H1K: FGF21 lysine-null mutant with H1K, SEQ ID NO:23 (protein, listed as Homo sapiens)
chain: KPIPDSSPLLQFGGQVRQRYLYTDDAQQTEAHLEIREDGTVGGAADQSPESLLQLRALRPGVIQILGVRTSRFLCQRPDGALYGSLHFDPEACSFRELLLEDGYNVYQSEAHGLPLHLPGNRSPHRDPAPRGPARFLPLPGLPPALPEPPGILAPQPPDVGSSDPLSMVGPSQGRSPSYAS
With B2, the EC50 – broadly, the concentration that produces a half-maximal response – in series [2] (setting [5]) is 6.4 nM and 4.3 nM. In series [3], the IV half-life worked out at 16 h, the SC bioavailability is listed as 51% and the SC half-life stood at 11 h.

B3: Ab-L5-FGF21ΔH-K59: SEQ ID NO:19 combined with L5 at K59 and conjugated with h38C2 (conjugate, listed as Homo sapiens)
chain: PIPDSSPLLQFGGQVRQRYLYTDDAQQTEAHLEIREDGTVGGAADQSPESLLQLRALKPGVIQILGVRTSRFLCQRPDGALYGSLHFDPEACSFRELLLEDGYNVYQSEAHGLPLHLPGNRSPHRDPAPRGPARFLPLPGLPPALPEPPGILAPQPPDVGSSDPLSMVGPSQGRSPSYAS
modifications: L5 linker at K59 conjugated to h38C2 antibody
For B3, in series [2] (setting [5]), the EC50 was found to be 6.5 nM. In series [1], the “Cumulative body weight change, mean body weight” value is 2.7 g and the “mean liver weight” value was found to be 2.4 g. Further, the “Mean Glucose AUC (% of vehicle control) during OGTT” value with ob/ob mice is given as 105 % of vehicle control. This molecule registered an IV half-life in series [3] of 13 h.

B4: FGF21ΔH-K56-K59R-K69R-K122R: FGF21 lysine mutant, SEQ ID NO:18 (protein, listed as Homo sapiens)
chain: PIPDSSPLLQFGGQVRQRYLYTDDAQQTEAHLEIREDGTVGGAADQSPESLLQLKALRPGVIQILGVRTSRFLCQRPDGALYGSLHFDPEACSFRELLLEDGYNVYQSEAHGLPLHLPGNRSPHRDPAPRGPARFLPLPGLPPALPEPPGILAPQPPDVGSSDPLSMVGPSQGRSPSYAS
With B4, the EC50 in series [2] (setting [5]) was 0.9 nM; in series [4] (3T3-L1 adipocytes, 24 hrs, unconjugated protein), 5.5 nM.

B5: FGF21ΔH-Knull-S181K: FGF21 lysine-null mutant with S181K, SEQ ID NO:24 (protein, listed as Homo sapiens)
chain: PIPDSSPLLQFGGQVRQRYLYTDDAQQTEAHLEIREDGTVGGAADQSPESLLQLRALRPGVIQILGVRTSRFLCQRPDGALYGSLHFDPEACSFRELLLEDGYNVYQSEAHGLPLHLPGNRSPHRDPAPRGPARFLPLPGLPPALPEPPGILAPQPPDVGSSDPLSMVGPSQGRSPSYAK
As to B5, in series [2] (setting [5]), the concentration for a half-maximal effect (EC50) was found to be 7.5 nM.

B6: Ab-L5-FGF21ΔH-Knull-S181K: SEQ ID NO:24 combined with L5 at S181K and conjugated with h38C2 (conjugate, listed as Homo sapiens)
chain: PIPDSSPLLQFGGQVRQRYLYTDDAQQTEAHLEIREDGTVGGAADQSPESLLQLRALRPGVIQILGVRTSRFLCQRPDGALYGSLHFDPEACSFRELLLEDGYNVYQSEAHGLPLHLPGNRSPHRDPAPRGPARFLPLPGLPPALPEPPGILAPQPPDVGSSDPLSMVGPSQGRSPSYAK
modifications: L5 linker at K181 conjugated to h38C2 antibody
On to B6, for which the EC50 in series [2] (setting [5]) was over 500 nM.

B7: FGF21ΔH-L86C: FGF21 cysteine mutant, SEQ ID NO:14 (protein, listed as Homo sapiens)
chain: PIPDSSPLLQFGGQVRQRYLYTDDAQQTEAHLEIREDGTVGGAADQSPESLLQLKALKPGVIQILGVKTSRFLCQRPDGALYGSCHFDPEACSFRELLLEDGYNVYQSEAHGLPLHLPGNKSPHRDPAPRGPARFLPLPGLPPALPEPPGILAPQPPDVGSSDPLSMVGPSQGRSPSYAS
For B7, the half-maximal effective concentration (EC50) in series [4] (unconjugated protein (per Examples 18-21), n in parentheses) amounted to 62 nM.

B8: FGF21ΔH-A129C: FGF21 cysteine mutant, SEQ ID NO:10 (protein, listed as Homo sapiens)
chain: PIPDSSPLLQFGGQVRQRYLYTDDAQQTEAHLEIREDGTVGGAADQSPESLLQLKALKPGVIQILGVKTSRFLCQRPDGALYGSLHFDPEACSFRELLLEDGYNVYQSEAHGLPLHLPGNKSPHRDPCPRGPARFLPLPGLPPALPEPPGILAPQPPDVGSSDPLSMVGPSQGRSPSYAS
For the molecule B8, in series [2] (3T3-L1 adipocytes), the “activity in Glut1 Taqman assay (in words)” value was “dose-dependent Glut1 induction”. For the same molecule, the EC50 in series [2] (3T3-L1 adipocytes, serum-free DMEM 0.2% BSA, Taqman quantitative real-time PCR, read-out: Glut1 RNA expression EC50) was 16 nM; in series [2] (setting [5]) it was 1.4 nM.

B9: Ab-L5-FGF21ΔH-Knull-P2: SEQ ID NO:22 combined at the N' terminus of P2 with L5 and conjugated with h38C2 (conjugate, listed as Homo sapiens)
chain: PIPDSSPLLQFGGQVRQRYLYTDDAQQTEAHLEIREDGTVGGAADQSPESLLQLRALRPGVIQILGVRTSRFLCQRPDGALYGSLHFDPEACSFRELLLEDGYNVYQSEAHGLPLHLPGNRSPHRDPAPRGPARFLPLPGLPPALPEPPGILAPQPPDVGSSDPLSMVGPSQGRSPSYAS
modifications: L5 linker at N-terminus, conjugated to h38C2 antibody
As for B9, the EC50 in series [2] (setting [5]) was 16.6 nM. Also, in series [3], the IV half-life stood at 17 h.

B10: FGF21ΔH-Knull-P2: FGF21 lysine-null mutant, SEQ ID NO:22 (protein, listed as Homo sapiens)
chain: PIPDSSPLLQFGGQVRQRYLYTDDAQQTEAHLEIREDGTVGGAADQSPESLLQLRALRPGVIQILGVRTSRFLCQRPDGALYGSLHFDPEACSFRELLLEDGYNVYQSEAHGLPLHLPGNRSPHRDPAPRGPARFLPLPGLPPALPEPPGILAPQPPDVGSSDPLSMVGPSQGRSPSYAS
With B10, the EC50 in series [2] (setting [5]) was 1.2 nM.

B11: FGF21ΔH-H125C: FGF21 cysteine mutant, SEQ ID NO:7 (protein, listed as Homo sapiens)
chain: PIPDSSPLLQFGGQVRQRYLYTDDAQQTEAHLEIREDGTVGGAADQSPESLLQLKALKPGVIQILGVKTSRFLCQRPDGALYGSLHFDPEACSFRELLLEDGYNVYQSEAHGLPLHLPGNKSPCRDPAPRGPARFLPLPGLPPALPEPPGILAPQPPDVGSSDPLSMVGPSQGRSPSYAS
Consider B11, for which, in series [2] (setting [5]), the half-maximal effective concentration (EC50) was 1.2 nM.
